Data published in patent US20120252071A1 (ROCHE DIAGNOSTICS OPERATIONS, published 2012).

Molecular target: the molecule itself
Test: non-reducing SDS-PAGE after 16 h at 37 C without reducing agent (self-association by disulfide bonds)
Procedure: Samples of T7 variants were prepared according to a procedure described in Example 4. T7 RNA polymerase and variants thereof were analyzed by gel electrophoresis on polyacrylamide gels containing sodium dodecylsulphate (SDS). Gradient gels (NuPAGE, 4-12%, Bis-Tris Gel, Invitrogen) were used. Typically, protein samples (0.26 mg/ml, 18 μl) were mixed with 6 μl of NuPAGE LDS (Lithium dodecyl sulfate; LDS may also be substituted by sodium dodecyl sulfate) sample buffer, (4×, Invitrogen). After heating for 2 min at 85° C., samples (20 μl) were applied on the gel. The total amount of protein in a single lane of the gel was between 1 μg and 3 μg. Gels were run in SDS Running Buffer (1×MES, Invitrogen) at 200 V for 1 hour.
Further, samples of wild-type T7 and T7 variants (0.2 to 0.3 mg/ml each) were incubated at 37° C. for 16 hours in 25 mM Tris/HCl, pH 7.5 (adjusted at 25° C.), 0.1 mM EDTA, 100 mM NaCl. Aliquots were removed and applied on the SDS gels under reducing conditions or under non-reducing conditions. After incubation a sample of each treated preparation was subjected to SDS polyacrylamide gel electrophoresis as described in Example 5. Results are depicted in FIG. 2 (reducing reagents absent) and FIG. 3 (10 mM DTT added).
With reference to FIG. 2 (reducing reagents absent), and in reference to Examples 5, 6, and 7, a stained SDS polyacrylamide gel is shown. […]

B1: T7 variant #8 [Cys125Ser, Cys347Ser, Cys492Ser, Cys515Ser, Cys723Ser, Cys839Ser] including His6-tag (enzyme)
chain: MNTINIAKNDFSDIELAAIPFNTLADHYGERLAREQLALEHESYEMGEARFRKMFERQLKAGEVADNAAAKPLITTLLPKMIARINDWFEEVKAKRGKRPTAFQFLQEIKPEAVAYITIKTTLASLTSADNTTVQAVASAIGRAIEDEARFGRIRDLEAKHFKKNVEEQLNKRVGHVYKKAFMQVVEADMLSKGLLGGEAWSSWHKEDSIHVGVRCIEMLIESTGMVSLHRQNAGVVGQDSETIELAPEYAEAIATRAGALAGISPMFQPCVVPPKPWTGITGGGYWANGRRPLALVRTHSKKALMRYEDVYMPEVYKAINIAQNTAWKINKKVLAVANVITKWKHSPVEDIPAIEREELPMKPEDIDMNPEALTAWKRAAAAVYRKDKARKSRRISLEFMLEQANKFANHKAIWFPYNMDWRGRVYAVSMFNPQGNDMTKGLLTLAKGKPIGKEGYYWLKIHGANCAGVDKVPFPERIKFIEENHENIMASAKSPLENTWWAEQDSPFCFLAFSFEYAGVQHHGLSYNCSLPLAFDGSCSGIQHFSAMLRDEVGGRAVNLLPSETVQDIYGIVAKKVNEILQADAINGTDNEVVTVTDENTGEISEKVKLGTKALAGQWLAYGVTRSVTKRSVMTLAYGSKEFGFRQQVLEDTIQPAIDSGKGLMFTQPNQAAGYMAKLIWESVSVTVVAAVEAMNWLKSAAKLLAAEVKDKKTGEILRKRSAVHWVTPDGFPVWQEYKKPIQTRLNLMFLGQFRLQPTINTNKDSEIDAHKQESGIAPNFVHSQDGSHLRKTVVWAHEKYGIESFALIHDSFGTIPADAANLFKAVRETMVDTYESSDVLADFYDQFADQLHESQLDKMPALPAKGNLNLRDILESDFAFA
notes: also called six-fold mutant; sextuple T7 variant; not shown: N-terminal His6-tag with linker
- binding result: no binding (tested: 2.9 µg of protein per lane)
